In assay [1] the target is TNB-738, anti-CD38 biparatopic antibody (human (from transgenic UniRat) | human). The assay is described as follows: BLI. Background: Biolayer interferometry detects binding as a change in optical thickness at a sensor tip.
Assay [2] concerns the target human CD38 on Chinese hamster ovary (CHO) cells stably transfected to express CD38 (human) (UniProt P28907). Nature of the assay: flow cytometry on cells. For orientation: In flow cytometry, cells or beads pass a laser one at a time.
Assay [3] addresses CD38 on CD38+ human cells (Daudi, Ramos, PBMCs) (human (endogenous in Daudi, Ramos and PBMCs)) (UniProt P28907). Nature of the assay: flow cytometry on cells.
In assay [4] the target is recombinant human CD38 extracellular domain (ECD) fused to a his-tag (human) (UniProt P28907). The assay is described as follows: SPR.

Values joined by “and” are separate entries in the source; they are usually repeats but may differ in a detail not shown here. Equal entries are not always repeated.

Broadly, the Kd is the free concentration of one partner at which half of the binding sites on the other are occupied at equilibrium, for simple one-to-one binding. As usually defined, the EC50 is the midpoint of the concentration-response curve. Low values mean greater potency, high ones weaker potency.

Substance “recombinant human CD38 extracellular domain (ECD) fused to a his-tag (from UniProt P28907 43-300) (domain or fragment)” came in with a dissociation constant Kd in assay [1] of 2.48 nM.
Regarding “TNB-738, anti-CD38 biparatopic antibody (bispecific antibody)”, the concentration giving a half-maximal response (EC50) is 70.2 nM in assay [2]; 39.7 nM and 50.3 nM in assay [3]. Also, in assay [4], the Kd fell in the range of 0.1 to 3.8 nM.
